In article PMC10508174 (Cell reports, 2023):
Numbering of substitutions follows the chain as printed. One block for each binder: values may come before it.

Columns and labels:
DDX39B (residues 44-428) = DDX39B (residues 44-428) (human, UniProt Q13838 44-428); test: crystal structure
SARNP (residues 1-210) = target: T1, SARNP (residues 1-210) (human, UniProt P82979 1-210); test: MST
T1 sequence (looked up): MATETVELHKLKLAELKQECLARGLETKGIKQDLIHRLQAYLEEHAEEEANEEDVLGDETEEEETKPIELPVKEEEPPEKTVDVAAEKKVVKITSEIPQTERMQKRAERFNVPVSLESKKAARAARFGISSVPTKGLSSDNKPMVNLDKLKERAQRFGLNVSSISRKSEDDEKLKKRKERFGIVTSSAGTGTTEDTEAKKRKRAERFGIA

[1] = target: T2, SARNP-mut2 (R153A/F157A/R177A/F181A/R203A/F207A) (human, UniProt P82979 1-210, R153A | F157A | R177A | F181A | R203A | F207A); test: MST
T2 sequence (looked up): T1 sequence (looked up) with R153A, F157A, R177A, F181A, R203A, F207A

binding result (DDX39B (residues 44-428)): binds
B1: Tho1 (residues 123-178) (domain or fragment, S. cerevisiae, UniProt P40040 123-178, looked up)
chain: EEIKAKALDLLNKKLHRANKFGQDQADIDSLQRQINRVEKFGVDLNSKLAEELGLV

EC50 (SARNP (residues 1-210)): 1300 nM
EC50 [1]: 3000 nM
B2: DDX39B-CTD (residues 259-428) (domain or fragment, human, UniProt Q13838 259-428, looked up)
chain: LHGLQQYYVKLKDNEKNRKLFDLLDVLEFNQVVIFVKSVQRCIALAQLLVEQNFPAIAIHRGMPQEERLSRYQQFKDFQRRILVATNLFGRGMDIERVNIAFNYDMPEDSDTYLHRVARAGRFGTKGLAITFVSDENDAKILNDVQDRFEVNISELPDEIDISSYIEQTR
